Measured values: paper PMC6077149 (Molecular Therapy. Methods & Clinical Development, 2018)

B1: GluA4-Fc (amino-terminal domain of GluA4 fused to huIgG1-Fc and an Avi tag) (Fc fusion)
chain: AFPSSVQIGGLFIRNTDQEYTAFRLAIFLHNTSPNASEAPFNLVPHVDNIETANSFAVTNAFCSQYSRGVFAIFGLYDKRSVHTLTSFCSALHISLITPSFPTEGESQFVLQLRPSLRGALLSLLDHYEWNCFVFLYDTDRGYSILQAIMEKAGQNGWHVSAICVENFNDVSYRQLLEELDRRQEKKFVIDCEIERLQNILEQIVSVGKHVKGYHYIIANLGFKDISLERFIHGGANVTGFQLVDFNTPMVTKLMDRWKKLDQREYPGSETPPKYTSALTYDGVLVMAETFRSLRRQKIDISRRGNAGDCLANPAAPWGQGIDMERTLKQVRIQGLTGNVQFDHYGRRVNYTMDVFELKSTGPRKVGYWNDMDKLVLIQD
modifications: biotin on the Avi tag in the biotinylated form (roughly 76% biotinylated)

What was measured:
[1] = biological target: Fc (huIgG1-Fc fused to the Avi tag) (human); experiment: SEC
[2] = biological target: DARPin SB4 fused to the measles virus H protein (DARPin-H); experiment: flow cytometry on cells
[3] = biological target: four DARPins (SD8, SK14, 2K19, 2B7) and the scFv Fab7; experiment: flow cytometry on cells
[4] = biological target: DARPin 2B7 fused to the measles virus H protein (DARPin-H); experiment: flow cytometry on cells
SEC = biological target: the molecule itself; experiment: SEC

Molecule | stoichiometry N [1] | Kd [2] [nM] | Kd [3] [nM] | Kd [4] [nM] | stoichiometry N (SEC)
Fc (huIgG1-Fc fused to the Avi tag) (domain or fragment) | 2 |  |  |  | 
B1 |  | 19 | 1.6 to 3.7 | 8.4 | 4
